Legend:
[1] = molecular target: T1, CXCR4 mutation library (Human CXCR4-short) (Homo sapiens, UniProt P61073, N192K); experiment: Shotgun mutagenesis epitope mapping, immunofluorescence on CXCR4 mutation library in HEK-293T; format: binding; conditions: residue N192; mutation N192K; normalized to wild type; 3 experiments (+/−range); 238D2 critical residues under high stringency
T1 construct: expressed in transfected cells; host or cells: HEK-293T, transient, 384-well
Description: (§1) Method: See e.g. Willis, et al. 2008. Virus-like particles as quantitative probes of membrane protein interactions. Biochemistry 47:6988-6990. In short, the method comprises the following steps:
(§2) Create comprehensive mutation library • Start with a cDNA in eukaryotic expression plasmid • Create library where every amino acid is individually mutated
(§3) Express each clone within living cells in 384-well microplates
(§4) Detect structure and/or function of proteins
(§5) • Parental plasmid: Human CXCR4-short (SEQ ID NO: 6, 352 amino acids) • Epitope tags: N-terminal Flag (to detect surface expression), C-terminal V5 (to detect full-length translation) • Cell types used for immunofluorescence assays: HEK-293T
(§6) The immunofluorescence assay conditions (to detect binding) were optimized for the nanbodies to be tested. In short, 384-well immunofluorescence (IF) assay using HEK-293T cells transiently was transfected with different concentrations of CXCR4 DNA. The plate was first incubated with different concentrations of either Nanobody 238D2 or 238D4, then with 9E10, and finally with Cy3. The commercially-available anti-CXCR4 MAb 12G5 was used as an IF control.
(§7) Mapping Nanobody Binding to CXCR4 Mutation Library: The entire library was screened in triplicate with each Nanobody. The data was background-subtracted and normalized to wild type reactivity and averaged across the repeats. Nanobody binding was plotted as a function of average surface expression, and measured by immunoreactivity of an N-terminal Flag epitope tag. Thresholds of 60% Flag and 30% Nanobody were used to identify critical clones. Using standard IF conditions, we identified 1 critical residue (2 critical clones). Using increased stringency assay conditions (high salt), we identified 5 additional residues (Tables C-3 and C-4).

[2] = test system: CXCR4 mutation library (Human CXCR4-short); experiment: as above; format: binding
Description: as §1, §2, §3, §4, §5, §6, §7

[3] = molecular target: T2, CXCR4 mutation library (Human CXCR4-short) (Homo sapiens, UniProt P61073, D187V); experiment: as above; format: binding; conditions: residue D187; mutation D187V; normalized to wild type; 3 experiments (+/−range)
T2 construct: expressed in transfected cells; host or cells: HEK-293T, transient, 384-well
T2 sequence (P61073 whole entry D187V): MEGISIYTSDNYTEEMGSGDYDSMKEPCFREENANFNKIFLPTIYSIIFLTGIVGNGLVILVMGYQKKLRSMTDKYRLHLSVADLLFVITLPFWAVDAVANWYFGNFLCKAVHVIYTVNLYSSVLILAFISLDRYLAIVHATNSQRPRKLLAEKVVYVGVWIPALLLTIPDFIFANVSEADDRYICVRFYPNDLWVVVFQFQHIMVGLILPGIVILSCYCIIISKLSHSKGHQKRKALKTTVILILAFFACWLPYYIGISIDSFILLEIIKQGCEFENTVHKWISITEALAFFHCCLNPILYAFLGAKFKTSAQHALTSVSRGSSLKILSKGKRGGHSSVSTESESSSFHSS
Description: as §1, §2, §3, §4, §5, §6, §7

[4] = molecular target: T3, CXCR4 mutation library (Human CXCR4-short) (Homo sapiens, UniProt P61073, F189V); experiment: as above; format: binding; conditions: residue F189; mutation F189V; normalized to wild type; 3 experiments (+/−range)
T3 construct: expressed in transfected cells; host or cells: HEK-293T, transient, 384-well
T3 sequence (P61073 whole entry F189V): as the sequence (P61073 whole entry D187V) above, with V187D, F189V counted along it
Description: as §1, §2, §3, §4, §5, §6, §7

[5] = molecular target: T4, CXCR4 mutation library (Human CXCR4-short) (Homo sapiens, UniProt P61073, E277A/I245V/N298S); experiment: as above; format: binding; conditions: residue E277; mutations E277A, I245V, N298S; normalized to wild type; 3 experiments (+/−range); 238D2 critical residues under high stringency
T4 construct: expressed in transfected cells; host or cells: HEK-293T, transient, 384-well
T4 sequence (P61073 whole entry I245V/E277A/N298S): as the sequence (P61073 whole entry D187V) above, with V187D, I245V, E277A, N298S counted along it
Description: as §1, §2, §3, §4, §5, §6, §7

[6] = molecular target: T5, CXCR4 mutation library (Human CXCR4-short) (Homo sapiens, UniProt P61073, E277G); experiment: as above; format: binding; conditions: residue E277; mutation E277G; normalized to wild type; 3 experiments (+/−range); 238D2 critical residues under high stringency
T5 construct: expressed in transfected cells; host or cells: HEK-293T, transient, 384-well
T5 sequence (P61073 whole entry E277G): as the sequence (P61073 whole entry D187V) above, with V187D, E277G counted along it
Description: as §1, §2, §3, §4, §5, §6, §7

[7] = molecular target: T6, CXCR4 mutation library (Human CXCR4-short) (Homo sapiens, UniProt P61073, W195R); experiment: as above; format: binding; conditions: residue W195; mutation W195R; normalized to wild type; 3 experiments (+/−range); 238D2 critical residues under high stringency
T6 construct: expressed in transfected cells; host or cells: HEK-293T, transient, 384-well
T6 sequence (P61073 whole entry W195R): as the sequence (P61073 whole entry D187V) above, with V187D, W195R counted along it
Description: as §1, §2, §3, §4, §5, §6, §7

[8] = molecular target: T7, CXCR4 mutation library (Human CXCR4-short) (Homo sapiens, UniProt P61073, P191T); experiment: as above; format: binding; conditions: residue P191; mutation P191T; normalized to wild type; 3 experiments (+/−range); 238D2 critical residues under high stringency
T7 construct: expressed in transfected cells; host or cells: HEK-293T, transient, 384-well
T7 sequence (P61073 whole entry P191T): as the sequence (P61073 whole entry D187V) above, with V187D, P191T counted along it
Description: as §1, §2, §3, §4, §5, §6, §7

[9] = molecular target: T8, CXCR4 mutation library (Human CXCR4-short) (Homo sapiens, UniProt P61073, C218R/E179V/S351T); experiment: as above; format: binding; conditions: residue E179; mutations C218R, E179V, S351T; normalized to wild type; 3 experiments (+/−range)
T8 construct: expressed in transfected cells; host or cells: HEK-293T, transient, 384-well
T8 sequence (P61073 whole entry E179V/C218R/S351T): as the sequence (P61073 whole entry D187V) above, with E179V, V187D, C218R, S351T counted along it
Description: as §1, §2, §3, §4, §5, §6, §7

[10] = molecular target: T9, CXCR4 mutation library (Human CXCR4-short) (Homo sapiens, UniProt P61073, F189L/S319P/V155E); experiment: as above; format: binding; conditions: residue F189; mutations F189L, S319P, V155E; normalized to wild type; 3 experiments (+/−range)
T9 construct: expressed in transfected cells; host or cells: HEK-293T, transient, 384-well
T9 sequence (P61073 whole entry V155E/F189L/S319P): as the sequence (P61073 whole entry D187V) above, with V155E, V187D, F189L, S319P counted along it
Description: as §1, §2, §3, §4, §5, §6, §7

[11] = molecular target: T10, CXCR4 mutation library (Human CXCR4-short) (Homo sapiens, UniProt P61073, K230E/S178R); experiment: as above; format: binding; conditions: residue S178; mutations K230E, S178R; normalized to wild type; 3 experiments (+/−range)
T10 construct: expressed in transfected cells; host or cells: HEK-293T, transient, 384-well
T10 sequence (P61073 whole entry S178R/K230E): as the sequence (P61073 whole entry D187V) above, with S178R, V187D, K230E counted along it
Description: as §1, §2, §3, §4, §5, §6, §7

[12] = molecular target: T11, CXCR4 mutation library (Human CXCR4-short) (Homo sapiens, UniProt P61073, P163L/S178I); experiment: as above; format: binding; conditions: residue S178; mutations P163L, S178I; normalized to wild type; 3 experiments (+/−range)
T11 construct: expressed in transfected cells; host or cells: HEK-293T, transient, 384-well
T11 sequence (P61073 whole entry P163L/S178I): as the sequence (P61073 whole entry D187V) above, with P163L, S178I, V187D counted along it
Description: as §1, §2, §3, §4, §5, §6, §7

[13] = molecular target: T12, CXCR4 mutation library (Human CXCR4-short) (Homo sapiens, UniProt P61073, F189S/K308R); experiment: as above; format: binding; conditions: residue F189; mutations F189S, K308R; normalized to wild type; 3 experiments (+/−range)
T12 construct: expressed in transfected cells; host or cells: HEK-293T, transient, 384-well
T12 sequence (P61073 whole entry F189S/K308R): as the sequence (P61073 whole entry D187V) above, with V187D, F189S, K308R counted along it
Description: as §1, §2, §3, §4, §5, §6, §7

[14] = molecular target: T13, CXCR4 mutation library (Human CXCR4-short) (Homo sapiens, UniProt P61073, S178C); experiment: as above; format: binding; conditions: residue S178; mutation S178C; normalized to wild type; 3 experiments (+/−range)
T13 construct: expressed in transfected cells; host or cells: HEK-293T, transient, 384-well
T13 sequence (P61073 whole entry S178C): as the sequence (P61073 whole entry D187V) above, with S178C, V187D counted along it
Description: as §1, §2, §3, §4, §5, §6, §7

[15] = molecular target: T14, CXCR4 mutation library (Human CXCR4-short) (Homo sapiens, UniProt P61073, V196E); experiment: as above; format: binding; conditions: residue V196; mutation V196E; normalized to wild type; 3 experiments (+/−range); 238D2 critical residues under high stringency
T14 construct: expressed in transfected cells; host or cells: HEK-293T, transient, 384-well
T14 sequence (P61073 whole entry V196E): as the sequence (P61073 whole entry D187V) above, with V187D, V196E counted along it
Description: as §1, §2, §3, §4, §5, §6, §7

[16] = molecular target: T15, CXCR4 mutation library (Human CXCR4-short) (Homo sapiens, UniProt P61073, E179V/G258E); experiment: as above; format: binding; conditions: residue E179; mutations E179V, G258E; normalized to wild type; 3 experiments (+/−range)
T15 construct: expressed in transfected cells; host or cells: HEK-293T, transient, 384-well
T15 sequence (P61073 whole entry E179V/G258E): as the sequence (P61073 whole entry D187V) above, with E179V, V187D, G258E counted along it
Description: as §1, §2, §3, §4, §5, §6, §7

[17] = molecular target: all CXCR4 library clones containing a mutation at D187; experiment: immunofluorescence, average over all clones with a mutation at D187

T1 sequence (P61073 whole entry N192K): as the sequence (P61073 whole entry D187V) above, with V187D, N192K counted along it

B1: 238D2: monovalent anti CXCR4 Nanobody, SEQ ID NO: 2 (protein)
VHH: EVQLVESGGGLVQTGGSLRLSCAASGFTFSSYAMSWVRQAPGKGLEWVSGIKSSGDSTRYAGSVKGRFTISRDNAKNMLYLQMYSLKPEDTAVYYCAKSRVSRTGLYTYDNRGQGTQVTVSS
modifications: Nanobody
[1]
  % immunofluoresence, clone 914: 8.3 (3.6) %
[2]; all clones containing a mutation at N192, * high stringency conditions
  average nanobody reactivity, residue N192: 8.3*
[2]; all clones containing a mutation at P191, * high stringency conditions
  average nanobody reactivity, residue P191: 15.8*
[2]; all clones containing a mutation at V196, * high stringency conditions
  average nanobody reactivity, residue V196: 20.6*
[2]; all clones containing a mutation at W195, * high stringency conditions
  average nanobody reactivity, residue W195: 10.0*
[2]; average of all clones containing a mutation at E277, * high stringency conditions
  average nanobody reactivity, residue E277: 27.5*
[2]; average of all clones containing a mutation at F189
  average nanobody reactivity, residue F189: −0.9
[3]
  % immunofluoresence, clone 2084: 93.6 (5.2) %
[4]
  % immunofluoresence, clone 1129: −1.9 (24.2) %
[5]
  % immunofluoresence, clone 185: 35.5 (12.3) %
[6]
  % immunofluoresence, clone 3622: 19.5 (11.9) %
[7]
  % immunofluoresence, clone 3630: 10.0 (10.4) %
[8]
  % immunofluoresence, clone 2184: 15.8 (5.4) %
[9]
  % immunofluoresence, clone 414: 71.1 (6.7) %
[10]
  % immunofluoresence, clone 465: 31.8 (16.2) %
[11]
  % immunofluoresence, clone 1057: 54.6 (5.8) %
[12]
  % immunofluoresence, clone 709: 64.1 (19.6) %
[13]
  % immunofluoresence, clone 913: −32.6 (18.7) %
[14]
  % immunofluoresence, clone 2396: 44.9 (13.4) %
[15]
  % immunofluoresence, clone 2270: 20.6 (32.9) %
[16]
  % immunofluoresence, clone 2834: 84.6 (7.8) %

B2: Nanobody 238D4 (VHH)
VHH: EVQLMESGGGLVQAGGSLRLSCAASGRTFNNYAMGWFRRAPGKEREFVAAITRSGVRSGVSAIYGDSVKDRFTISRDNAKNTLYLQMNSLKPEDTAVYTCAASAIGSGALRRFEYDYSGQGTQVTVSS
[17]
  average nanobody reactivity: -12.2%
